This is an account of results in patent EP4296674A1 (Université Toulouse III - Paul Sabatier, dated 2023).

T1: HadD of M. bovis BCG (BCG_0547c) (Mycobacterium bovis BCG, UniProt P64726 1-166)
T1 sequence: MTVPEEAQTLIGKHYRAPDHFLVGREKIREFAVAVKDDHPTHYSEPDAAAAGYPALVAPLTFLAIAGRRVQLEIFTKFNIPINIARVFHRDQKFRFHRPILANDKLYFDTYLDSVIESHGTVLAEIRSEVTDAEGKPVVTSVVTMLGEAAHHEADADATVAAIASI

T2: HadC (Rv0637) (Mycobacterium tuberculosis, UniProt P9WFJ9 1-166)
T2 sequence: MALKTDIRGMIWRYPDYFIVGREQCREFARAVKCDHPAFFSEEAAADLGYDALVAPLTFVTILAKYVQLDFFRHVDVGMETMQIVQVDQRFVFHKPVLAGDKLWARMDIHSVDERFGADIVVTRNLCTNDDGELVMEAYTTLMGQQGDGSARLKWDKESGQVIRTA

T3: HadD-Ctrp fusion protein (C-terminal fragment of S. cerevisiae Trp1p fused to the C-terminal end of HadD of … (Mycobacterium tuberculosis (HadD); …)
T3 chain: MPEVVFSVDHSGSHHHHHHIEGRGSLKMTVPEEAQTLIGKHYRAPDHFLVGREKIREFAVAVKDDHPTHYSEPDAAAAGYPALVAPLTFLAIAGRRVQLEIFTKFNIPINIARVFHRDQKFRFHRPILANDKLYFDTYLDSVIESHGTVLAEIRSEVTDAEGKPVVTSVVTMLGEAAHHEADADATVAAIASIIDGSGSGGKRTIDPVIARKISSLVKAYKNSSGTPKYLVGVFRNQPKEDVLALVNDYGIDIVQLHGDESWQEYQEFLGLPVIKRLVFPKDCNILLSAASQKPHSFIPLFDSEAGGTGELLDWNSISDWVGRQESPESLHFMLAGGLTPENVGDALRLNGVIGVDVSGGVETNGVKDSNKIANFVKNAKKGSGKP

T4: Cfp10-Ctrp fusion protein (Mycobacterium tuberculosis (Cfp10); …)
T4 chain: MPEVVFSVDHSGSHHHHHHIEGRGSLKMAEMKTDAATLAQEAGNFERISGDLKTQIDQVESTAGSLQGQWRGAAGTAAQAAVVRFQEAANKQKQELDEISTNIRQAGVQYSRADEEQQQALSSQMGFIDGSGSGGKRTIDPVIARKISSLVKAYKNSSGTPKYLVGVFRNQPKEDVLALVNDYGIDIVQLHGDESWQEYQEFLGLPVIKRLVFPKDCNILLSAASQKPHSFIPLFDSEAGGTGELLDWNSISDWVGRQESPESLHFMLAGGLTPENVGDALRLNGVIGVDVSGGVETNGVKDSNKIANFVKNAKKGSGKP

T5: HadC-Ctrp fusion protein (Mycobacterium tuberculosis (HadC); …)
T5 chain: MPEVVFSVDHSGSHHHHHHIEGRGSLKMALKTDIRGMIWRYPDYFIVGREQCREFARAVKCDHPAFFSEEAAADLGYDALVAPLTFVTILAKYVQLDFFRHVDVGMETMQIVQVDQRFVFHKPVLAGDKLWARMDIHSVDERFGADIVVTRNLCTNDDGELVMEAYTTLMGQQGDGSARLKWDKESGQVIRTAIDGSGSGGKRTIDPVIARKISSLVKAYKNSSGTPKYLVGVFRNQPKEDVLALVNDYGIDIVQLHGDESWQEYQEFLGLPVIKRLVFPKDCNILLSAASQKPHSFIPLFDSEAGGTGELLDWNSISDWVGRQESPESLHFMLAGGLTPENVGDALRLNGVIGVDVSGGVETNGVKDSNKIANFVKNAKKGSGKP

B1: HadB protein of Mycobacterium tuberculosis (untagged) (enzyme)
chain: MALREFSSVKVGDQLPEKTYPLTRQDLVNYAGVSGDLNPIHWDDEIAKVVGLDTAIAHGMLTMGIGGGYVTSWVGDPGAVTEYNVRFTAVVPVPNDGKGAELVFNGRVKSVDPESKSVTIALTATTGGKKIFGRAIASAKLA
B2: HadA of Mycobacterium tuberculosis fused to an enhanced Green Fluorescent Protein (eGFP) tag at its N-terminus (other)
chain: MALSADIVGMHYRYPDHYEVEREKIREYAVAVQNDDAWYFEEDGAAELGYKGLLAPLTFICVFGYKAQAAFFKHANIATAEAQIVQVDQVLKFEKPIVAGDKLYCDVYVDSVREAHGTQIIVTKNIVTNEEGDLVQETYTTLAGRAGEDGEGFSDGAA
B3: Ntrp-HadDMtb fusion protein (other)
chain: SSVINFTGSSGPLVKVCGLQSTEAAECALDSDADLLGIICVPNRMTVPEEAQTLIGKHYRAPDHFLVGREKIREFAVAVKDDHPTHYSEPDAAAAGYPALVAPLTFLAIAGRRVQLEIFTKFNIPINIARVFHRDQKFRFHRPILANDKLYFDTYLDSVIESHGTVLAEIRSEVTDAEGKPVVTSVVTMLGEAAHHEADADATVAAIASI
B4: Ntrp-Esat6 fusion protein (other)
chain: MPEVVFSVDHSGSGTMYPYDVPDYASSVINFTGSSGPLVKVCGLQSTEAAECALDSDADLLGIICVPNRGGSGSGLKMTEQQWNFAGIEAAASAIQGNVTSIHSLLDEGKQSLTKLAAAWGGSGSEAYQGVQQKWDATATELNNALQNLARTISEAGQAMASTEGNVTGMFA
B5: Ntrp-HadB fusion protein (N-terminal fragment of S. cerevisiae Trp1p fused to the N-terminal end of HadB of Mtb) (other)
chain: MPEVVFSVDHSGSGTMYPYDVPDYASSVINFTGSSGPLVKVCGLQSTEAAECALDSDADLLGIICVPNRGGSGSGLKMALREFSSVKVGDQLPEKTYPLTRQDLVNYAGVSGDLNPIHWDDEIAKVVGLDTAIAHGMLTMGIGGGYVTSWVGDPGAVTEYNVRFTAVVPVPNDGKGAELVFNGRVKSVDPESKSVTIALTATTGGKKIFGRAIASAKLA

The target of experiment [1] is N-terminal polyHis-tagged HadD of Mycobacterium tuberculosis (Mycobacterium tuberculosis). As to the kind of experiment: from the HadBD crystal structure.
Experiment [2] addresses HadB protein of Mycobacterium tuberculosis (untagged) (Mycobacterium tuberculosis).
The target in experiment [3] is N-terminal polyHis-tagged HadD of Mycobacterium tuberculosis (Mycobacterium tuberculosis). As to the kind of experiment: PDBePISA analysis of the HadBD crystal structure.
Experiment [4] has as its target B2. Put plainly: pull-down from M. bovis BCG on anti-GFP magnetic beads, nanoLC-MS/MS proteomics.
In experiment [5] the target is T1, HadD of M. bovis BCG (BCG_0547c). The experiment is described as above.
A further experiment concerns the target T2, HadC (Rv0637). Described as above.
In experiment [6] the target is T3, HadD-Ctrp fusion protein (C-terminal …). As to the kind of experiment: split-Trp assay in M. smegmatis ΔhisA, growth on medium without Trp.
Experiment [7] deals with T4, Cfp10-Ctrp fusion protein. Put plainly: split-Trp assay in M. smegmatis ΔhisA, positive control pair.
The target of another experiment is T5, HadC-Ctrp fusion protein. The description is as above.
Experiment [8] has as its target T3, HadD-Ctrp fusion protein (C-terminal …). Put plainly: split-Trp assay in M. smegmatis ΔhisA.

“HadB protein of Mycobacterium tuberculosis (untagged) (enzyme)” gave a total buried surface at each heterodimer interface in experiment [1] of 3840 A^2. In [2], this molecule showed a buried surface area of 525 A^2 and a ΔG (PDBePISA) of -24.3 kJ/mol. In experiment [3], this molecule yielded a surface of heterodimerization (PDBePISA) of 1340 Å^2 and a ΔG of heterodimerization (PDBePISA) of -46 kJ/mol.
Turning to B1, the binding result in [4] is given as “binds”.
On to B2, for which the binding result (in [5]; with HadC (Rv0637)) was “binds” each time.
Turning to B3, the binding result in experiment [6] is “no binding”.
As to B4, the binding result in experiment [7] is “binds”.
For the molecule B5, the binding result (with HadC-Ctrp fusion protein; in experiment [8]) was “binds” throughout.
